Assay results from publication PMC6763431, “Methionine in a protein hydrophobic core drives tight interactions required for assembly of spider silk” (Nature Communications, 2019).

B1: wild-type N-terminal domain of major ampullate spidroin 1 (MaSp1) from Euprosthenops australis [Euprosthenops australis] / itself (parent)
chain: SHTTPWTNPGLAENFMNSFMQGLSSMPGFTASQLDDMSTIAQSMVQSIQSLAAQGRTSPNKLQALNMAFASSMAEIAASEEGGGSLSTKTSSIASAMSNAFLQTTGVVNQPFINEITQLVSMFAQAGMNDVSA

Variants of: B1
Test: high-resolution SEC
Conditions: with itself; read off a plot

For SHTTPWTNPGLAENFLNSFLQGLSSMPGFTASQLDDMSTIAQSMVQSIQSLAAQGRTSPNKLQALNMAFASSMAEIAASEEGGGSLSTKTSSIASAMSNAFLQTTGVVNQPFINEITQLVSMFAQAGMNDVSA, which Kd is on record?
The Kd was 160 nM.

With SHTTPWTNPGLAENFLNSFLQGLSSMPGFTASQLDDLSTIAQSMVQSIQSLAAQGRTSPNKLQALNMAFASSMAEIAASEEGGGSLSTKTSSIASAMSNAFLQTTGVVNQPFINEITQLVSMFAQAGMNDVSA as the variant, how does the Kd read?
The Kd was 750 nM.

How did the Kd turn out when SHTTPWTNPGLAENFLNSFLQGLSSMPGFTASQLDDLSTIAQSLVQSIQSLAAQGRTSPNKLQALNMAFASSMAEIAASEEGGGSLSTKTSSIASAMSNAFLQTTGVVNQPFINEITQLVSMFAQAGMNDVSA was run?
The Kd was 660 nM.

Which Kd does the source give for SHTTPWTNPGLAENFLNSFLQGLSSMPGFTASQLDDLSTIAQSLVQSIQSLAAQGRTSPNKLQALNMAFASSLAEIAASEEGGGSLSTKTSSIASAMSNAFLQTTGVVNQPFINEITQLVSMFAQAGMNDVSA here?
Its Kd is 1000 nM.
